T1: XENP23311 (His-tagged NKG2D-Fc) (human, UniProt P26718 78-216)
T1 chain: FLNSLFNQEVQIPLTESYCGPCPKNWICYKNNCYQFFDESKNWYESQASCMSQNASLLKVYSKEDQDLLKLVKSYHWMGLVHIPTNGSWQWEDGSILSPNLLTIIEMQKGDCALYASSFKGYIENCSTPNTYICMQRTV


Biological target: T1, XENP23311 (His-tagged NKG2D-Fc)
Test: Octet

Binder | Kd [nM]
XENP40888 (LB_1002, 2+1 VHVL) (antibody) chain 1: EVQLLESGGGLVQPGGSLRLSCAVSGFSLSSYGVIWVRQAPGKGLEYVSWVSSGGSTNYASSVKGRFTISRDTSKNTVYLQMNSLRAEDTAVYFCARGATNSGTDIWGPGTLVTVSSASTKGPSVFPLAPSSKSTSGGTAALGCLVKDYFPEPVTVSWNSGALTSGVHTFPAVLQSSGLYSLSSVVTVPSSSLGTQTYICNVNHKPSDTKVDKKVEPKSCDKTHTCPPCPAPELLGGPSVFLFPPKPKDTLMISRTPEVTCVVVDVSHEDPEVKFNWYVDGVEVHNAKTKPREEEYNSTYRVVSVLTVLHQDWLNGKEYKCKVSNKALPAPIEKTISKAKGQPREPQVYTLPPSREEMTKNQVSLTCDVSGFYPSDIAVEWESDGQPENNYKTTPPVLDSDGSFFLYSKLTVDKSRWEQGDVFSCSVMHEALHNHYTQKSLSLSPGK chain 2: EVQLLESGGGLVQPGGSLRLSCAVSGFSLSSYGVIWVRQAPGKGLEYVSWVSSGGSTNYASSVKGRFTISRDTSKNTVYLQMNSLRAEDTAVYFCARGATNSGTDIWGPGTLVTVSSASTKGPSVFPLAPSSKSTSGGTAALGCLVKDYFPEPVTVSWNSGALTSGVHTFPAVLQSSGLYSLSSVVTVPSSSLGTQTYICNVNHKPSNTKVDKKVEPKSCGGGGSGGGGSEVQLVESGGGLVKPGGSLRLSCAASGFTFSSYSMNWVRQAPGKGLEWVSSISSSSSYIYYADSVKGRFTISRDNAKNSLYLQMNSLRAEDTAVYYCARGAPMGAAAGWFDPWGQGTLVTVSSGKPGSGKPGSGKPGSGKPGSDIQMTQSPSSVSASVGDRVTITCRASQGISSWLAWYQQKPGKAPKLLIYAASSLQSGVPSRFSGSGSGTDFTLTISSLQPEDFATYYCQQGVSFPRTFGGGTKVEIKGGGGSGGGGSKTHTCPPCPAPELLGGPSVFLFPPKPKDTLMISRTPEVTCVVVDVSHEDPEVKFNWYVDGVEVHNAKTKPREEQYNSTYRVVSVLTVLHQDWLNGKEYKCKVSNKALPAPIEKTISKAKGQPREPQVYTLPPSREQMTKNQVKLTCLVKGFYPSDIAVEWESNGQPENNYKTTPPVLDSDGSFFLYSKLTVDKSRWQQGNVFSCSVMHEALHNHYTQKSLSLSPGK chain 3: DIVMTQSPSSLSASVGDRVTITCRASQSINSWLSWYQQKPGKPPKLLIYGASNLASGVPSRFKGSGSGTDFTLTISSLQPEDFATYYCQNNYGIIAAGATFGGGTKVEIKRTVAAPSVFIFPPSDEQLKSGTASVVCLLNNFYPREAKVQWKVDNALQSGNSQESVTEQDSKDSTYSLSSTLTLSKADYEKHKVYACEVTHQGLSSPVTKSFNRGEC | 158
XENP41343 (1D2B4, mAb-scFv VLVH) (antibody) chain 1: EVQLLESGGGLVQPGGSLRLSCAVSGFSLSSYGVIWVRQAPGKGLEYVSWVSSGGSTNYASSVKGRFTISRDTSKNTVYLQMNSLRAEDTAVYFCARGATNSGTDIWGPGTLVTVSSASTKGPSVFPLAPSSKSTSGGTAALGCLVKDYFPEPVTVSWNSGALTSGVHTFPAVLQSSGLYSLSSVVTVPSSSLGTQTYICNVNHKPSDTKVDKKVEPKSCDKTHTCPPCPAPELLGGPSVFLFPPKPKDTLMISRTPEVTCVVVDVSHEDPEVKFNWYVDGVEVHNAKTKPREEEYNSTYRVVSVLTVLHQDWLNGKEYKCKVSNKALPAPIEKTISKAKGQPREPQVYTLPPSREEMTKNQVSLTCDVSGFYPSDIAVEWESDGQPENNYKTTPPVLDSDGSFFLYSKLTVDKSRWEQGDVFSCSVMHEALHNHYTQKSLSLSPGK chain 2: not shown chain 3: DIVMTQSPSSLSASVGDRVTITCRASQSINSWLSWYQQKPGKPPKLLIYGASNLASGVPSRFKGSGSGTDFTLTISSLQPEDFATYYCQNNYGIIAAGATFGGGTKVEIKRTVAAPSVFIFPPSDEQLKSGTASVVCLLNNFYPREAKVQWKVDNALQSGNSQESVTEQDSKDSTYSLSSTLTLSKADYEKHKVYACEVTHQGLSSPVTKSFNRGEC | 115
XENP40552 (LB_1001, mAb-scFv VHVL) (antibody) chain 1: EVQLLESGGGLVQPGGSLRLSCAVSGFSLSSYGVIWVRQAPGKGLEYVSWVSSGGSTNYASSVKGRFTISRDTSKNTVYLQMNSLRAEDTAVYFCARGATNSGTDIWGPGTLVTVSSASTKGPSVFPLAPSSKSTSGGTAALGCLVKDYFPEPVTVSWNSGALTSGVHTFPAVLQSSGLYSLSSVVTVPSSSLGTQTYICNVNHKPSDTKVDKKVEPKSCDKTHTCPPCPAPELLGGPSVFLFPPKPKDTLMISRTPEVTCVVVDVSHEDPEVKFNWYVDGVEVHNAKTKPREEEYNSTYRVVSVLTVLHQDWLNGKEYKCKVSNKALPAPIEKTISKAKGQPREPQVYTLPPSREEMTKNQVSLTCDVSGFYPSDIAVEWESDGQPENNYKTTPPVLDSDGSFFLYSKLTVDKSRWEQGDVFSCSVMHEALHNHYTQKSLSLSPGK chain 2: not shown chain 3: DIVMTQSPSSLSASVGDRVTITCRASQSINSWLSWYQQKPGKPPKLLIYGASNLASGVPSRFKGSGSGTDFTLTISSLQPEDFATYYCQNNYGIIAAGATFGGGTKVEIKRTVAAPSVFIFPPSDEQLKSGTASVVCLLNNFYPREAKVQWKVDNALQSGNSQESVTEQDSKDSTYSLSSTLTLSKADYEKHKVYACEVTHQGLSSPVTKSFNRGEC | 95.1
XENP41338 (LB_1002, 2+1 VLVH) (antibody) chain 1: EVQLLESGGGLVQPGGSLRLSCAVSGFSLSSYGVIWVRQAPGKGLEYVSWVSSGGSTNYASSVKGRFTISRDTSKNTVYLQMNSLRAEDTAVYFCARGATNSGTDIWGPGTLVTVSSASTKGPSVFPLAPSSKSTSGGTAALGCLVKDYFPEPVTVSWNSGALTSGVHTFPAVLQSSGLYSLSSVVTVPSSSLGTQTYICNVNHKPSDTKVDKKVEPKSCDKTHTCPPCPAPELLGGPSVFLFPPKPKDTLMISRTPEVTCVVVDVSHEDPEVKFNWYVDGVEVHNAKTKPREEEYNSTYRVVSVLTVLHQDWLNGKEYKCKVSNKALPAPIEKTISKAKGQPREPQVYTLPPSREEMTKNQVSLTCDVSGFYPSDIAVEWESDGQPENNYKTTPPVLDSDGSFFLYSKLTVDKSRWEQGDVFSCSVMHEALHNHYTQKSLSLSPGK chain 2: EVQLLESGGGLVQPGGSLRLSCAVSGFSLSSYGVIWVRQAPGKGLEYVSWVSSGGSTNYASSVKGRFTISRDTSKNTVYLQMNSLRAEDTAVYFCARGATNSGTDIWGPGTLVTVSSASTKGPSVFPLAPSSKSTSGGTAALGCLVKDYFPEPVTVSWNSGALTSGVHTFPAVLQSSGLYSLSSVVTVPSSSLGTQTYICNVNHKPSNTKVDKKVEPKSCGGGGSGGGGSDIQMTQSPSSVSASVGDRVTITCRASQGISSWLAWYQQKPGKAPKLLIYAASSLQSGVPSRFSGSGSGTDFTLTISSLQPEDFATYYCQQGVSFPRTFGGGTKVEIKGKPGSGKPGSGKPGSGKPGSEVQLVESGGGLVKPGGSLRLSCAASGFTFSSYSMNWVRQAPGKGLEWVSSISSSSSYIYYADSVKGRFTISRDNAKNSLYLQMNSLRAEDTAVYYCARGAPMGAAAGWFDPWGQGTLVTVSSGGGGSGGGGSKTHTCPPCPAPELLGGPSVFLFPPKPKDTLMISRTPEVTCVVVDVSHEDPEVKFNWYVDGVEVHNAKTKPREEQYNSTYRVVSVLTVLHQDWLNGKEYKCKVSNKALPAPIEKTISKAKGQPREPQVYTLPPSREQMTKNQVKLTCLVKGFYPSDIAVEWESNGQPENNYKTTPPVLDSDGSFFLYSKLTVDKSRWQQGNVFSCSVMHEALHNHYTQKSLSLSPGK chain 3: DIVMTQSPSSLSASVGDRVTITCRASQSINSWLSWYQQKPGKPPKLLIYGASNLASGVPSRFKGSGSGTDFTLTISSLQPEDFATYYCQNNYGIIAAGATFGGGTKVEIKRTVAAPSVFIFPPSDEQLKSGTASVVCLLNNFYPREAKVQWKVDNALQSGNSQESVTEQDSKDSTYSLSSTLTLSKADYEKHKVYACEVTHQGLSSPVTKSFNRGEC | 630
XENP41333 (LB_1001, 1+1 VLVH) (antibody) chain 1: EVQLLESGGGLVQPGGSLRLSCAVSGFSLSSYGVIWVRQAPGKGLEYVSWVSSGGSTNYASSVKGRFTISRDTSKNTVYLQMNSLRAEDTAVYFCARGATNSGTDIWGPGTLVTVSSASTKGPSVFPLAPSSKSTSGGTAALGCLVKDYFPEPVTVSWNSGALTSGVHTFPAVLQSSGLYSLSSVVTVPSSSLGTQTYICNVNHKPSDTKVDKKVEPKSCDKTHTCPPCPAPELLGGPSVFLFPPKPKDTLMISRTPEVTCVVVDVSHEDPEVKFNWYVDGVEVHNAKTKPREEEYNSTYRVVSVLTVLHQDWLNGKEYKCKVSNKALPAPIEKTISKAKGQPREPQVYTLPPSREEMTKNQVSLTCDVSGFYPSDIAVEWESDGQPENNYKTTPPVLDSDGSFFLYSKLTVDKSRWEQGDVFSCSVMHEALHNHYTQKSLSLSPGK chain 2: not shown chain 3: DIVMTQSPSSLSASVGDRVTITCRASQSINSWLSWYQQKPGKPPKLLIYGASNLASGVPSRFKGSGSGTDFTLTISSLQPEDFATYYCQNNYGIIAAGATFGGGTKVEIKRTVAAPSVFIFPPSDEQLKSGTASVVCLLNNFYPREAKVQWKVDNALQSGNSQESVTEQDSKDSTYSLSSTLTLSKADYEKHKVYACEVTHQGLSSPVTKSFNRGEC | 42

These reach a lower Kd. Values come first.

Kd [nM] | Binder
28.9 | XENP41344 (1D7B4, mAb-scFv VLVH) (antibody) chain 1: EVQLLESGGGLVQPGGSLRLSCAVSGFSLSSYGVIWVRQAPGKGLEYVSWVSSGGSTNYASSVKGRFTISRDTSKNTVYLQMNSLRAEDTAVYFCARGATNSGTDIWGPGTLVTVSSASTKGPSVFPLAPSSKSTSGGTAALGCLVKDYFPEPVTVSWNSGALTSGVHTFPAVLQSSGLYSLSSVVTVPSSSLGTQTYICNVNHKPSDTKVDKKVEPKSCDKTHTCPPCPAPELLGGPSVFLFPPKPKDTLMISRTPEVTCVVVDVSHEDPEVKFNWYVDGVEVHNAKTKPREEEYNSTYRVVSVLTVLHQDWLNGKEYKCKVSNKALPAPIEKTISKAKGQPREPQVYTLPPSREEMTKNQVSLTCDVSGFYPSDIAVEWESDGQPENNYKTTPPVLDSDGSFFLYSKLTVDKSRWEQGDVFSCSVMHEALHNHYTQKSLSLSPGK chain 2: not shown chain 3: DIVMTQSPSSLSASVGDRVTITCRASQSINSWLSWYQQKPGKPPKLLIYGASNLASGVPSRFKGSGSGTDFTLTISSLQPEDFATYYCQNNYGIIAAGATFGGGTKVEIKRTVAAPSVFIFPPSDEQLKSGTASVVCLLNNFYPREAKVQWKVDNALQSGNSQESVTEQDSKDSTYSLSSTLTLSKADYEKHKVYACEVTHQGLSSPVTKSFNRGEC
7.72 | XENP40375 (1D7B4, 1+1 VHVL) (antibody) chain 1: EVQLLESGGGLVQPGGSLRLSCAVSGFSLSSYGVIWVRQAPGKGLEYVSWVSSGGSTNYASSVKGRFTISRDTSKNTVYLQMNSLRAEDTAVYFCARGATNSGTDIWGPGTLVTVSSASTKGPSVFPLAPSSKSTSGGTAALGCLVKDYFPEPVTVSWNSGALTSGVHTFPAVLQSSGLYSLSSVVTVPSSSLGTQTYICNVNHKPSDTKVDKKVEPKSCDKTHTCPPCPAPELLGGPSVFLFPPKPKDTLMISRTPEVTCVVVDVSHEDPEVKFNWYVDGVEVHNAKTKPREEEYNSTYRVVSVLTVLHQDWLNGKEYKCKVSNKALPAPIEKTISKAKGQPREPQVYTLPPSREEMTKNQVSLTCDVSGFYPSDIAVEWESDGQPENNYKTTPPVLDSDGSFFLYSKLTVDKSRWEQGDVFSCSVMHEALHNHYTQKSLSLSPGK chain 2: not shown chain 3: DIVMTQSPSSLSASVGDRVTITCRASQSINSWLSWYQQKPGKPPKLLIYGASNLASGVPSRFKGSGSGTDFTLTISSLQPEDFATYYCQNNYGIIAAGATFGGGTKVEIKRTVAAPSVFIFPPSDEQLKSGTASVVCLLNNFYPREAKVQWKVDNALQSGNSQESVTEQDSKDSTYSLSSTLTLSKADYEKHKVYACEVTHQGLSSPVTKSFNRGEC

From patent publication US20230151095A1 (published 2023)
